Assay results: patent US6835807B1, “Drug complex and drug delivery system” (Daiichi Pharmaceuticals Co., Ltd., priority 1998, dated 2004)
Marks after values point to notes of the source that are not given here.

Columns and labels:
[1] = test system: Meth A cells; assay: Antineoplastic activity of the complexes of Examples 1, 5 and 6 (Example 10); type: in vivo, BALB/c mice; conditions: singly administered on the 7th day; for IR, diminution rate of the tumor: 21th day; for Average tumor weight: tumor weighed on the 21th day
Procedure: (§1) Meth A cells were transplanted into BALB/c mice to prepare Meth A tumor-bearing mice. On the 7th day after the transplantation, the drug complexes shown in Examples 1, 5 and 6 were singly administered, respectively. The weight of the tumor was measured on the 21th day to evaluate the inhibitory activity on the tumor and the toxicity. In the table, * represents significance in Dunnet's test (*** p<0.001, ** P<0.01, * P<0.05), the dose is expressed in terms of the weight of anhydrous free base of DX-8951, and IR represents the diminution rate of the tumor.

[2] = test system: Meth A tumor-bearing mice; assay: Maximum tolerated dose (MTD) of the drug complex of Example 1 (Example 3); type: in vivo, BALB/c mice; conditions: for N, mice died/mice used / BWLmax, maximum body-weight reduction rate / day when the maximum body-weight reduction was observed: single administration on the 20th day
Procedure: (§2) Meth A cells were transplanted into BALB/c mice to prepare Meth A tumor-bearing mice. On the 20th day, single administration of the drug complex of Example 1 was carried out. After the administration, measurement of the body weight and observation of toxic death were made with time and the maximum body-weight reduction rate and mortality were calculated, which are shown in Table 2. The dose is expressed in terms of the weight of anhydrous free base of DX-8951.

[3] = Release of the drug compound from the drug complex in Meth A homogenate (Example 2); type: in vitro ADME, murine; conditions: for released amount of the drug (DX-8951), percentage of the drug in the drug complex used: 37° C., 378 μg/ml, after 20 hours
Procedure: (§3) The drug complex obtained in Example 1 was dissolved in a Meth A (murine fibrosarcoma Meth A) homogenate or a buffer at 37° C. (378 μg/ml). After 20 hours, released DX-8951 was determined. The compound wherein the spacer and DX-8951 were bound to each other without p-aminobenzyloxycarbonyl group was prepared and used as a comparative compound. The released amount of the drug is expressed in percentage of the released amount of the drug to the amount of the drug in the drug complex used.

[4] = Release of the drug compound from the drug complex in buffer (Example 2); type: physicochemical; conditions: for released amount of the drug (DX-8951), percentage of the drug in the drug complex used: 37° C., 378 μg/ml, after 20 hours
Procedure: as §3

[5] = Release of the drug compound from the drug complex in mouse plasma (Example 2); type: in vitro ADME; conditions: 37° C., 378 μg/ml, after 20 hours
[6] = test system: Meth A cells (murine fibrosarcoma Meth A); assay: Antineoplastic activity of the drug complex of Example 1 (Example 4); type: in vivo, BALB/c mice; conditions: for BWLmax, maximum body-weight reduction rate / N, mice died/mice used / IR, diminution rate of the tumor / Average tumor weight / day when the maximum body-weight reduction was observed: administered on the 7th day; for IR, diminution rate of the tumor: 21th day; for Average tumor weight: tumor weighed on the 21th day
Procedure: as §1, with “cells (murine fibrosarcoma Meth A)” for “cells”, “complex of Example 1 was administered.” for “complexes shown in Examples 1, 5 and 6 were singly administered, respectively.”, “P<0.001,” for “p<0.001,”, “P<0.01),” for “P<0.01, * P<0.05),”

[7] = Release of the drug compound from the drug complex in buffer (Example 8); type: physicochemical; conditions: for released amount of the drug (DX-8951), percentage of the drug in the drug complex used: 37° C., 50 μg/ml, after 20 hours
Procedure: (50 μg/ml). […] The released amount of the drug is expressed in percentage of the released amount of the drug to the amount of the drug in the drug complex used.

[8] = test system: Meth A tumor-bearing mice; assay: Maximum tolerated dose of the drug complexes of Examples 5, 6 and 7 (Example 9); type: in vivo, BALB/c mice; conditions: single administration on the 13th day
Procedure: as §2, with “13th” for “20th”, “day,” for “day, single administration of”, “complexes obtained in Examples 5, 6 and 7 were singly administered.” for “complex of Example 1 was carried out.”, “time,” for “time”, “5.” for “2.”
On the basis of the dose in which body weight reduction and death were observed, MTD of each complex were judged as follows.

Carboxymethyldextran polyalcohol-Gly-Gly-Gly-Phe-NH-p-C6H4—CH2—O—CO-DX-8951 [Example 6]
IR, diminution rate of the tumor ([1]; 0.15625 mg/kg): 37%
Average tumor weight ([1]; 0.15625 mg/kg): 1.645 ± 0.191* g
IR, diminution rate of the tumor ([1]; 0.3125 mg/kg): 46%
Average tumor weight ([1]; 0.3125 mg/kg): 1.419 ± 0.163** g
IR, diminution rate of the tumor ([1]; 0.625 mg/kg): 90%
Average tumor weight ([1]; 0.625 mg/kg): 0.272 ± 0.066*** g
IR, diminution rate of the tumor ([1]; 1.25 mg/kg): 99%
Average tumor weight ([1]; 1.25 mg/kg): 0.016 ± 0.008*** g

Carboxymethyldextran polyalcohol-Gly-Gly-Phe-Gly-NH-p-C6H4—CH2—O—CO-DX-8951 [Example 1]
N, mice died/mice used ([2]; 0.156 mg/kg): 0/2
BWLmax, maximum body-weight reduction rate ([2]; 0.156 mg/kg, <0 = no reduction observed): <0%
N, mice died/mice used ([2]; 0.625 mg/kg): 0/2
BWLmax, maximum body-weight reduction rate ([2]; 0.625 mg/kg, <0 = no reduction observed): <0%
toxic death in words ([2]; 10 mg/kg): toxic death of all the cases
BWLmax, maximum body-weight reduction rate ([2]; 10 mg/kg): 32.8%
N, mice died/mice used ([2]; 10 mg/kg): 2/2
day when the maximum body-weight reduction was observed ([2]; 10 mg/kg): 26 days
BWLmax, maximum body-weight reduction rate ([2]; 30 mg/kg (as DX-8951 anhydrous free base)): 17.9%
N, mice died/mice used ([2]; 30 mg/kg): 2/2
day when the maximum body-weight reduction was observed ([2]; 30 mg/kg): 22 days
N, mice died/mice used ([2]; […]): 0/2
released amount of the drug (DX-8951), percentage of the drug in the drug complex used ([3]; Meth A homogenate (pH 4.5)): 37.7%
released amount of the drug (DX-8951), percentage of the drug in the drug complex used ([3]; Meth A homogenate (pH 5.5)): 38.1%
released amount of the drug (DX-8951), percentage of the drug in the drug complex used ([3]; Meth A homogenate (pH 6.5)): 4.25%
releasing rate of DX-8951 relative to the drug complex obtained in Example 5 ([3]; tables in Examples 2 and 8): about 113
release of the drug in words ([3]; weakly acidic homogenate): rapidly released
released amount of the drug (DX-8951), percentage of the drug in the drug complex used ([4]; Buffer (pH 4.5)): 0.190%
released amount of the drug (DX-8951), percentage of the drug in the drug complex used ([4]; Buffer (pH 5.5)): 0.178%
released amount of the drug (DX-8951), percentage of the drug in the drug complex used ([4]; Buffer (pH 6.5)): 0.171%
released amount of the drug (DX-8951), percentage of the drug in the drug complex used ([4]; Buffer (pH 7.5)): 0.138%
release of the drug in words ([4]; buffer): hardly released
released amount of the drug (DX-8951), percentage of the drug in the drug complex used [5]: 0.186%
BWLmax, maximum body-weight reduction rate ([1]; 0.625 mg/kg): <0%
N, mice died/mice used ([1]; 0.625 mg/kg): 0/6
IR, diminution rate of the tumor ([1]; 0.625 mg/kg): 43%
Average tumor weight ([1]; 0.625 mg/kg): 1.489 ± 0.215** g
BWLmax, maximum body-weight reduction rate ([1]; 1.25 mg/kg): <0%
N, mice died/mice used ([1]; 1.25 mg/kg): 0/6
IR, diminution rate of the tumor ([1]; 1.25 mg/kg): 71%
Average tumor weight ([1]; 1.25 mg/kg): 0.775 ± 0.207*** g
BWLmax, maximum body-weight reduction rate ([1]; 5 mg/kg): 4.0%
N, mice died/mice used ([1]; 5 mg/kg): 0/6
day when the maximum body-weight reduction was observed ([1]; 5 mg/kg): 13 days
IR, diminution rate of the tumor ([1]; 5 mg/kg): 100%
Average tumor weight ([1]; 5 mg/kg): 0.004 ± 0.001*** g
BWLmax, maximum body-weight reduction rate ([1]; 7.5 mg/kg): 26.1%
N, mice died/mice used ([1]; 7.5 mg/kg): 2/6
day when the maximum body-weight reduction was observed ([1]; 7.5 mg/kg): 16 days
IR, diminution rate of the tumor ([1]; 7.5 mg/kg): 100%
Average tumor weight ([1]; 7.5 mg/kg): 0.005 ± 0.003*** g
N, mice died/mice used ([1]; […]): 0/6
BWLmax, maximum body-weight reduction rate ([6]; 0.625 mg/kg): <0%
N, mice died/mice used ([6]; 0.625 mg/kg): 0/6
IR, diminution rate of the tumor ([6]; 0.625 mg/kg): 46%
Average tumor weight ([6]; 0.625 mg/kg): 1.247 ± 0.280** g
BWLmax, maximum body-weight reduction rate ([6]; 1.25 mg/kg): 0.3%
N, mice died/mice used ([6]; 1.25 mg/kg): 0/6
day when the maximum body-weight reduction was observed ([6]; 1.25 mg/kg): 8 days
IR, diminution rate of the tumor ([6]; 1.25 mg/kg): 74%
Average tumor weight ([6]; 1.25 mg/kg): 0.610 ± 0.180*** g
BWLmax, maximum body-weight reduction rate ([6]; 5 mg/kg): 2.9%
N, mice died/mice used ([6]; 5 mg/kg): 0/6
day when the maximum body-weight reduction was observed ([6]; 5 mg/kg): 13 days
IR, diminution rate of the tumor ([6]; 5 mg/kg): 99%
Average tumor weight ([6]; 5 mg/kg): 0.019 ± 0.004*** g
BWLmax, maximum body-weight reduction rate ([6]; 7.5 mg/kg): 24.8%
N, mice died/mice used ([6]; 7.5 mg/kg): 2/6
day when the maximum body-weight reduction was observed ([6]; 7.5 mg/kg): 15 days
IR, diminution rate of the tumor ([6]; 7.5 mg/kg): 100%
Average tumor weight ([6]; 7.5 mg/kg): 0.008 ± 0.002*** g
effect on tumor weight in words ([6]; 0.625 to 7.5 mg/kg): apparently diminished tumor weight dose-dependently
N, mice died/mice used ([6]; […]): 0/6

carboxymethyldextran polyalcohol-Gly-Gly-NH-p-C6H4—CH2—O—CO-DX-8951 [Example 7]
released amount of the drug (DX-8951), percentage of the drug in the drug complex used ([7]; Buffer (pH 4.5)): 0.15%
released amount of the drug (DX-8951), percentage of the drug in the drug complex used ([7]; Buffer (pH 6.5)): 0.16%
release of the drug in words ([7]; buffer): hardly released
BWLmax, maximum body-weight reduction rate ([8]; 5 mg/kg): 25.4%
day when the maximum body-weight reduction was observed ([8]; 5 mg/kg): 18 days
BWLmax, maximum body-weight reduction rate ([8]; 10 mg/kg): 13.7%
day when the maximum body-weight reduction was observed ([8]; 10 mg/kg): 16 days
BWLmax, maximum body-weight reduction rate ([8]; 20 mg/kg): 14.2%
day when the maximum body-weight reduction was observed ([8]; 20 mg/kg): 16 days
BWLmax, maximum body-weight reduction rate ([8]; 30 mg/kg): 14.6%
day when the maximum body-weight reduction was observed ([8]; 30 mg/kg): 16 days
MTD ([8]; dose as DX-8951 anhydrous free base): <2.5 mg/kg
